# Reference: publication PMC4370478, “Inhibition of Zn(II) Binding Type IA Topoisomerases by Organomercury Compounds and Hg(II)”
# B1: 59-base stem-loop oligonucleotide (non-cleavable) (structured_DNA)
# DNA: GCCCTGAAAGATTATGGAATGGGATTAGGGTAAAGGAAGAGAGCATAATCTTTCAGGGC
# Target: E. coli topoisomerase I (ETOP) (Escherichia coli, UniProt P06612 1-865)
# Assay: fluorescence anisotropy; 0.5 mM MgCl2; no inhibitor (Kd fitted, value not in the text held); 50 mM Tris-HCl pH 7.5, 100 mM NaCl, 0.1 mM EDTA, 0.5 mM MgCl2; 10-30 nM oligonucleotide; temperature not stated
# Settings: label: 3' 6-carboxyfluorescein; hairpin, 16 bp stem
# Sequence of E. coli topoisomerase I (ETOP) (P06612 whole entry): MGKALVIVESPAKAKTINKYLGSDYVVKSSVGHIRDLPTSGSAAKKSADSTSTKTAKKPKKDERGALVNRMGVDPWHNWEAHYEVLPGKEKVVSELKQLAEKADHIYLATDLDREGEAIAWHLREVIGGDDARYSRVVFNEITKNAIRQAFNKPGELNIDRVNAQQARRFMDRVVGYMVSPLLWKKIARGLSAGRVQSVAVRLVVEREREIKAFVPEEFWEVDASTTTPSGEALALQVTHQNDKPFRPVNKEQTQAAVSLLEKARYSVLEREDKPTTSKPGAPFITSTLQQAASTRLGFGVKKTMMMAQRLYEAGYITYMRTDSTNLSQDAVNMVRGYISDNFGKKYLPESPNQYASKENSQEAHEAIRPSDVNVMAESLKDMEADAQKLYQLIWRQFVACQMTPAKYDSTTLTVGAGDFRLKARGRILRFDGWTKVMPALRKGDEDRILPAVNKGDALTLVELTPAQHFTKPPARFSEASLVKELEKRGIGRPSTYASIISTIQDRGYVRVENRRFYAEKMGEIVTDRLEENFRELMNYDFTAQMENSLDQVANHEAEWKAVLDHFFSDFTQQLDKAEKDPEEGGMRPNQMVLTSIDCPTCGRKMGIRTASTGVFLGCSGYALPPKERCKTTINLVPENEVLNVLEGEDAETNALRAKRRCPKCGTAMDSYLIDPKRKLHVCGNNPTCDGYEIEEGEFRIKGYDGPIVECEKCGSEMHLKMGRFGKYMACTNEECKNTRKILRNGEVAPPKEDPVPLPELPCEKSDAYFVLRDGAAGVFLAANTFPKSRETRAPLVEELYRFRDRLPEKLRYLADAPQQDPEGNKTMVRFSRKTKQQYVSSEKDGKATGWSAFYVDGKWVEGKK
binder,measurement,value
B1,binding result,binds
